The target in this assay is amino-terminal hexahistidine-tagged EttA-EQ2 (E. coli) (UniProt P0A9W3). Briefly: pull-down.

The substance “E. coli 70S ribosome (from UniProt P0A7L0 1-234; P62399 1-179; P0A7N9 1-55; P02359 1-179; P0A7R1 1-149) (complex)” registered a stoichiometry N (EttA-EQ2:70S ribosome) of 1.

The values are drawn from paper PMC4143144.
